# B1: Azoarcus group I ribozyme (parent)
# chain: GUGCCUUGCGCCGGGAAACCACGCAAGGGAUGGUGUCAAAUUCGGCGAAACCUAAGCGCCCGCCCGGGCGUAUGGCAACGCCGAGCCAAGCUUCGGCGCCUGCGCCGAUGAAGGUGUAGAGACUAGACGGCACCCACCUAAGGCAAACGCUAUGGUGAAGGCAUAGUCCAGGGAGUGGCGAAAGUCACACAAACCGG
# Variants of: B1
# Test: reverse-splicing fitness (ratio to wild type); higher = more active; in vitro selection; Mg2+ level not given
# Procedure, shortened: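 An in vitro group I ribozyme library with randomized positions was T7-transcribed and gel-purified. In triplicate, 10 pmol RNA in EPPS pH 7.5 was reacted with 50 pmoles of a 30-nt RNA substrate for 1 h at 37 °C across several added MgCl2 levels (1–48 mM), then stopped with EDTA. Products were reverse transcribed from a substrate-complementary primer, PCR-amplified and sequenced (HiSeq 4000). Fitness is a variant's read proportion after selection over that before, normalised to wild type.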
row,Variant,reverse-splicing fitness
1,A111U A120U A145U C150U C169G U176C,0.00596
2,A111U A120U A145U C150U C169G U176A,0.00542
3,A111U A120U A145U C150U C169G U176G,0.00227
4,A111U A120U A145C C150U U176G,0.0208
5,A111U A120U A145C C150U U176C,0.0423
6,A111U A120U A145C C150U U176A,0.0565
7,A111U A120U A145U C150G C169U,0.00751
8,A111U A120U A145U C150G C169A,0.00326
9,A111U A120U A145U C150G C169G,0.00597
10,A111U A120U A145U C150U C169A U176A,0.00308
11,A111U A120U A145U C150U C169A U176G,0.00264
12,A111U A120U A145U C150U C169A U176C,0.00309
13,A111U A120U A145C C150G C169G U176A,0.00251
14,A111U A120U A145C C150G C169G U176G,0.00228
15,A111U A120U A145C C150G C169G U176C,0.00254
16,A111U A120U C150U C169G U176C,0.00679
17,A111U A120U C150U C169G U176A,0.00847
18,A111U A120U C150U C169G U176G,0.00213
19,A111U A120U A145C C150A C169A,0.00256
20,A111U A120U A145C C150A C169U,0.00469
21,A111U A120U A145C C150A C169G,0.00394
22,A111U A120U A145G C150A U176A,0.0364
23,A111U A120U A145G C150A U176C,0.0415
24,A111U A120U A145G C150A U176G,0.00868

row,Variant,reverse-splicing fitness
1,A111U A120U A145U C150U C169U U176G,0.00253
2,A111U A120U A145U C150U C169U U176C,0.00988
3,A111U A120U A145U C150U C169U U176A,0.00718
4,A111U A120U C150A C169U U176C,0.0045
5,A111U A120U C150A C169U U176G,0.00212
6,A111U A120U C150A C169U U176A,0.00638
7,A111U A145C C150A C169A,0.00817
8,A111U A145C C150A C169G,0.00935
9,A111U A145C C150A C169U,0.0131
10,A111U A120U A145U C150A C169G U176G,0.00225
11,A111U A120U A145U C150A C169G U176C,0.00325
12,A111U A120U A145U C150A C169G U176A,0.00269
13,A111U A145C C150G C169U U176G,0.00557
14,A111U A145C C150G C169U U176C,0.0128
15,A111U A145C C150G C169U U176A,0.00903
16,A111U A145C C150G U176C,0.218
17,A111U A145C C150G U176G,0.0277
18,A111U A145C C150G U176A,0.153
19,A111U A120U A145G C150G C169A U176A,0.0087
20,A111U A120U A145G C150G C169A U176C,0.00774
21,A111U A120U A145G C150G C169A U176G,0.00452
22,A111U A120U A145U,0.607
23,A111U A120U A145G,0.593
24,A111U A120U A145C,0.518

row,Variant,reverse-splicing fitness
1,A111U A120U C169U,0.0747
2,A111U A120U C169A,0.00533
3,A111U A120U C169G,0.0555
4,A111U A120G U176G,0.00656
5,A111U A120G U176A,0.0388
6,A111U A120G U176C,0.0497
7,A111U A145C C150A C169G U176C,0.0127
8,A111U A145C C150A C169G U176A,0.0227
9,A111U A145C C150A C169G U176G,0.00622
10,A111U A120U C150A U176G,0.0103
11,A111U A120U C150A U176C,0.0318
12,A111U A120U C150A U176A,0.0294
13,A111U A120U A145G C169A U176A,0.00212
14,A111U A120U A145G C169A U176G,0.00247
15,A111U A120U A145G C169A U176C,0.00376
16,A111U A120U A145G C150G C169G U176A,0.00683
17,A111U A120U A145G C150G C169G U176G,0.00343
18,A111U A120U A145G C150G C169G U176C,0.00495
19,A111U A145C C150G C169A U176C,0.00643
20,A111U A145C C150G C169A U176A,0.0076
21,A111U A145C C150G C169A U176G,0.00612
22,A111U A120U C150A C169A,0.00436
23,A111U A120U C150A C169U,0.00846
24,A111U A120U C150A C169G,0.00631

row,Variant,reverse-splicing fitness
1,A111U A120U A145G C150A C169G U176A,0.00807
2,A111U A120U A145G C150A C169G U176G,0.00267
3,A111U A120U A145G C150A C169G U176C,0.00547
4,A111U A120U A145G C150A C169A,0.00554
5,A111U A120U A145G C150A C169U,0.012
6,A111U A120U A145G C150A C169G,0.00946
7,A111U A120U A145G C169G U176A,0.00549
8,A111U A120U A145G C169G U176C,0.00918
9,A111U A120U A145G C169G U176G,0.00167
10,A111U A120U A145C C150U C169G,0.0115
11,A111U A120U A145C C150U C169U,0.0159
12,A111U A120U A145C C150U C169A,0.00229
13,A111U A120U A145U C150G C169A U176C,0.00274
14,A111U A120U A145U C150G C169A U176G,0.00255
15,A111U A120U A145U C150G C169A U176A,0.00319
16,A111U A120U A145C C150U C169A U176C,0.00198
17,A111U A120U A145C C150U C169A U176G,0.00275
18,A111U A120U A145C C150U C169A U176A,0.00251
19,A111U A120U A145C C150A U176G,0.00552
20,A111U A120U A145C C150A U176C,0.00836
21,A111U A120U A145C C150A U176A,0.012
22,A111U A145C C150A C169U U176C,0.0105
23,A111U A145C C150A C169U U176G,0.00676
24,A111U A145C C150A C169U U176A,0.0157

row,Variant,reverse-splicing fitness
1,A111U A120G C150U C169G U176A,0.0314
2,A111U A120G C150U C169G U176G,0.00503
3,A111U A120G C150U C169G U176C,0.0391
4,A111U A120U A145G U176G,0.0546
5,A111U A120U A145G U176A,0.27
6,A111U A120U A145G U176C,0.266
7,A111U A120U A145G C150U U176G,0.0253
8,A111U A120U A145G C150U U176C,0.206
9,A111U A120U A145G C150U U176A,0.18
10,A111U A120U A145G C169A,0.00419
11,A111U A120U A145G C169U,0.076
12,A111U A120U A145G C169G,0.0528
13,A111U A120U A145G C150U C169G U176G,0.0024
14,A111U A120U A145G C150U C169G U176C,0.00802
15,A111U A120U A145G C150U C169G U176A,0.00769
16,A111U A120U A145U C150A U176A,0.0229
17,A111U A120U A145U C150A U176C,0.0269
18,A111U A120U A145U C150A U176G,0.00946
19,A111U A120U A145U C150G,0.0604
20,A111U A120U A145U C150A,0.0527
21,A111U A120U A145U C150U,0.405
22,A111U A120G C150U C169U U176C,0.0386
23,A111U A120G C150U C169U U176G,0.00701
24,A111U A120G C150U C169U U176A,0.0401

row,Variant,reverse-splicing fitness
1,A111U A120G C150U C169A U176A,0.0189
2,A111U A120G C150U C169A U176G,0.00517
3,A111U A120G C150U C169A U176C,0.0245
4,A111U A120U A145C C150G C169U,0.00895
5,A111U A120U A145C C150G C169G,0.00697
6,A111U A120U A145C C150G C169A,0.0033
7,A111U A120U U176A,0.239
8,A111U A120U U176G,0.0683
9,A111U A120U U176C,0.296
10,A111U A120U A145U C150U C169A,0.00404
11,A111U A120U A145U C150U C169G,0.0304
12,A111U A120U A145U C150U C169U,0.0433
13,A111U A145C C150U C169U U176C,0.0152
14,A111U A145C C150U C169U U176G,0.00571
15,A111U A145C C150U C169U U176A,0.0173
16,A111U A120U A145C C169A,0.00435
17,A111U A120U A145C C169G,0.0459
18,A111U A120U A145C C169U,0.0629
19,A111U A120U C150A C169G U176G,0.00254
20,A111U A120U C150A C169G U176A,0.00698
21,A111U A120U C150A C169G U176C,0.00445
22,A111U A120U A145U C169A U176G,0.00231
23,A111U A120U A145U C169A U176C,0.00283
24,A111U A120U A145U C169A U176A,0.00253

row,Variant,reverse-splicing fitness
1,A111U A120U A145G C150A,0.0883
2,A111U A120U A145G C150G,0.0631
3,A111U A120U A145G C150U,0.486
4,A111U A145C C150G C169G,0.0108
5,A111U A145C C150G C169U,0.0175
6,A111U A145C C150G C169A,0.00988
7,A111U A120U A145G C150G C169U U176A,0.00644
8,A111U A120U A145G C150G C169U U176C,0.00615
9,A111U A120U A145G C150G C169U U176G,0.00383
10,A111U A120U A145U C150U U176A,0.16
11,A111U A120U A145U C150U U176C,0.174
12,A111U A120U A145U C150U U176G,0.0292
13,A111U A120G C150G U176G,0.00275
14,A111U A120U C150G C169U U176G,0.0029
15,A111U A120U C150G C169U U176A,0.00272
16,A111U A120U C150G C169U U176C,0.00454
17,A111U A120G C169A U176G,0.00454
18,A111U A120G C169A U176C,0.0386
19,A111U A120G C169A U176A,0.0264
20,A111U A120U A145G C150A C169A U176G,0.00281
21,A111U A120U A145G C150A C169A U176C,0.0038
22,A111U A120U A145G C150A C169A U176A,0.0049
23,A111U A145C C150U C169A U176C,0.00769
